B1: CIgG4F1A1(G4S)1 (Fc fusion)
chain 1: GPPCPPCPAPEFLGGPSVFLFPPKPKDTLMISRTPEVTCVVVDVSQEDPEVQFNWYVDGVEVHNAKTKPREEQFNSTYRVVSVLTVLHQDWLNGKEYKCKVSNKGLPSSIEKTISKAKGQPREPQVYTLPPCQEEMTKNQVSLWCLVKGFYPSDIAVEWESNGQPENNYKTTPPVLDSDGSFFLYSRLTVDKSRWQEGNVFSCSVMHEALHNHYTQKSLSLSLGKGGGGSDVQLQESGGGLVQAGGSLKLSCAASGGSLSRYDMGWFRQAPGKEREFVARISWSGTTKYYADAVKGRFAISRDNAKNTVYLQMNSLKPEDTAVYYCAAAFYGNRGYYDVNAYTSSGQGTQVTVS
chain 2: GPPCPPCPAPEFLGGPSVFLFPPKPKDTLMISRTPEVTCVVVDVSQEDPEVQFNWYVDGVEVHNAKTKPREEQFNSTYRVVSVLTVLHQDWLNGKEYKCKVSNKGLPSSIEKTISKAKGQPREPQVCTLPPSQEEMTKNQVSLSCAVKGFYPSDIAVEWESNGQPENNYKTTPPVLDSDGSFFLVSRLTVDKSRWQEGNVFSCSVMHEALHNHYTQKSLSLSLGKGGGGSEVQLLESGGGLVQPGGSLRLSCAASGFTFGNYDMAWVRQAPGKRPEWVSSIDTGGDITHYADSVKGRFTISRDNAKNTLYLQMNSLRPEDTAVYWCATDEEYALGPNEFDYYGQGTLVTVSS
B2: NIgG4F1A1(G4S)2 (Fc fusion)
chain 1: DVQLQESGGGLVQAGGSLKLSCAASGGSLSRYDMGWFRQAPGKEREFVARISWSGTTKYYADAVKGRFAISRDNAKNTVYLQMNSLKPEDTAVYYCAAAFYGNRGYYDVNAYTSSGQGTQVTVSGGGGSGGGGSGPPCPPCPAPEFLGGPSVFLFPPKPKDTLMISRTPEVTCVVVDVSQEDPEVQFNWYVDGVEVHNAKTKPREEQFNSTYRVVSVLTVLHQDWLNGKEYKCKVSNKGLPSSIEKTISKAKGQPREPQVYTLPPCQEEMTKNQVSLWCLVKGFYPSDIAVEWESNGQPENNYKTTPPVLDSDGSFFLYSRLTVDKSRWQEGNVFSCSVMHEALHNHYTQKSLSLSLGK
chain 2: EVQLLESGGGLVQPGGSLRLSCAASGFTFGNYDMAWVRQAPGKRPEWVSSIDTGGDITHYADSVKGRFTISRDNAKNTLYLQMNSLRPEDTAVYWCATDEEYALGPNEFDYYGQGTLVTVSSGGGGSGGGGSGPPCPPCPAPEFLGGPSVFLFPPKPKDTLMISRTPEVTCVVVDVSQEDPEVQFNWYVDGVEVHNAKTKPREEQFNSTYRVVSVLTVLHQDWLNGKEYKCKVSNKGLPSSIEKTISKAKGQPREPQVCTLPPSQEEMTKNQVSLSCAVKGFYPSDIAVEWESNGQPENNYKTTPPVLDSDGSFFLVSRLTVDKSRWQEGNVFSCSVMHEALHNHYTQKSLSLSLGK
B3: CIgG4F1A1(RS) (Fc fusion)
chain 1: GPPCPPCPAPEFLGGPSVFLFPPKPKDTLMISRTPEVTCVVVDVSQEDPEVQFNWYVDGVEVHNAKTKPREEQFNSTYRVVSVLTVLHQDWLNGKEYKCKVSNKGLPSSIEKTISKAKGQPREPQVYTLPPCQEEMTKNQVSLWCLVKGFYPSDIAVEWESNGQPENNYKTTPPVLDSDGSFFLYSRLTVDKSRWQEGNVFSCSVMHEALHNHYTQKSLSLSLGKRSDVQLQESGGGLVQAGGSLKLSCAASGGSLSRYDMGWFRQAPGKEREFVARISWSGTTKYYADAVKGRFAISRDNAKNTVYLQMNSLKPEDTAVYYCAAAFYGNRGYYDVNAYTSSGQGTQVTVS
chain 2: GPPCPPCPAPEFLGGPSVFLFPPKPKDTLMISRTPEVTCVVVDVSQEDPEVQFNWYVDGVEVHNAKTKPREEQFNSTYRVVSVLTVLHQDWLNGKEYKCKVSNKGLPSSIEKTISKAKGQPREPQVCTLPPSQEEMTKNQVSLSCAVKGFYPSDIAVEWESNGQPENNYKTTPPVLDSDGSFFLVSRLTVDKSRWQEGNVFSCSVMHEALHNHYTQKSLSLSLGKRSEVQLLESGGGLVQPGGSLRLSCAASGFTFGNYDMAWVRQAPGKRPEWVSSIDTGGDITHYADSVKGRFTISRDNAKNTLYLQMNSLRPEDTAVYWCATDEEYALGPNEFDYYGQGTLVTVSS
B4: NIgG4F1A1(G4S)1 (Fc fusion)
chain 1: DVQLQESGGGLVQAGGSLKLSCAASGGSLSRYDMGWFRQAPGKEREFVARISWSGTTKYYADAVKGRFAISRDNAKNTVYLQMNSLKPEDTAVYYCAAAFYGNRGYYDVNAYTSSGQGTQVTVSGGGGSGPPCPPCPAPEFLGGPSVFLFPPKPKDTLMISRTPEVTCVVVDVSQEDPEVQFNWYVDGVEVHNAKTKPREEQFNSTYRVVSVLTVLHQDWLNGKEYKCKVSNKGLPSSIEKTISKAKGQPREPQVYTLPPCQEEMTKNQVSLWCLVKGFYPSDIAVEWESNGQPENNYKTTPPVLDSDGSFFLYSRLTVDKSRWQEGNVFSCSVMHEALHNHYTQKSLSLSLGK
chain 2: EVQLLESGGGLVQPGGSLRLSCAASGFTFGNYDMAWVRQAPGKRPEWVSSIDTGGDITHYADSVKGRFTISRDNAKNTLYLQMNSLRPEDTAVYWCATDEEYALGPNEFDYYGQGTLVTVSSGGGGSGPPCPPCPAPEFLGGPSVFLFPPKPKDTLMISRTPEVTCVVVDVSQEDPEVQFNWYVDGVEVHNAKTKPREEQFNSTYRVVSVLTVLHQDWLNGKEYKCKVSNKGLPSSIEKTISKAKGQPREPQVCTLPPSQEEMTKNQVSLSCAVKGFYPSDIAVEWESNGQPENNYKTTPPVLDSDGSFFLVSRLTVDKSRWQEGNVFSCSVMHEALHNHYTQKSLSLSLGK
B5: NIgG4F1A1(RS) (Fc fusion)
chain 1: DVQLQESGGGLVQAGGSLKLSCAASGGSLSRYDMGWFRQAPGKEREFVARISWSGTTKYYADAVKGRFAISRDNAKNTVYLQMNSLKPEDTAVYYCAAAFYGNRGYYDVNAYTSSGQGTQVTVSRSGPPCPPCPAPEFLGGPSVFLFPPKPKDTLMISRTPEVTCVVVDVSQEDPEVQFNWYVDGVEVHNAKTKPREEQFNSTYRVVSVLTVLHQDWLNGKEYKCKVSNKGLPSSIEKTISKAKGQPREPQVYTLPPCQEEMTKNQVSLWCLVKGFYPSDIAVEWESNGQPENNYKTTPPVLDSDGSFFLYSRLTVDKSRWQEGNVFSCSVMHEALHNHYTQKSLSLSLGK
chain 2: EVQLLESGGGLVQPGGSLRLSCAASGFTFGNYDMAWVRQAPGKRPEWVSSIDTGGDITHYADSVKGRFTISRDNAKNTLYLQMNSLRPEDTAVYWCATDEEYALGPNEFDYYGQGTLVTVSSRSGPPCPPCPAPEFLGGPSVFLFPPKPKDTLMISRTPEVTCVVVDVSQEDPEVQFNWYVDGVEVHNAKTKPREEQFNSTYRVVSVLTVLHQDWLNGKEYKCKVSNKGLPSSIEKTISKAKGQPREPQVCTLPPSQEEMTKNQVSLSCAVKGFYPSDIAVEWESNGQPENNYKTTPPVLDSDGSFFLVSRLTVDKSRWQEGNVFSCSVMHEALHNHYTQKSLSLSLGK
B6: NIgG4F1A1(G4S)3 (Fc fusion)
chain 1: DVQLQESGGGLVQAGGSLKLSCAASGGSLSRYDMGWFRQAPGKEREFVARISWSGTTKYYADAVKGRFAISRDNAKNTVYLQMNSLKPEDTAVYYCAAAFYGNRGYYDVNAYTSSGQGTQVTVSGGGGSGGGGSGGGGSGPPCPPCPAPEFLGGPSVFLFPPKPKDTLMISRTPEVTCVVVDVSQEDPEVQFNWYVDGVEVHNAKTKPREEQFNSTYRVVSVLTVLHQDWLNGKEYKCKVSNKGLPSSIEKTISKAKGQPREPQVYTLPPCQEEMTKNQVSLWCLVKGFYPSDIAVEWESNGQPENNYKTTPPVLDSDGSFFLYSRLTVDKSRWQEGNVFSCSVMHEALHNHYTQKSLSLSLGK
chain 2: EVQLLESGGGLVQPGGSLRLSCAASGFTFGNYDMAWVRQAPGKRPEWVSSIDTGGDITHYADSVKGRFTISRDNAKNTLYLQMNSLRPEDTAVYWCATDEEYALGPNEFDYYGQGTLVTVSSGGGGSGGGGSGGGGSGPPCPPCPAPEFLGGPSVFLFPPKPKDTLMISRTPEVTCVVVDVSQEDPEVQFNWYVDGVEVHNAKTKPREEQFNSTYRVVSVLTVLHQDWLNGKEYKCKVSNKGLPSSIEKTISKAKGQPREPQVCTLPPSQEEMTKNQVSLSCAVKGFYPSDIAVEWESNGQPENNYKTTPPVLDSDGSFFLVSRLTVDKSRWQEGNVFSCSVMHEALHNHYTQKSLSLSLGK
B7: CIgG4F1A1(G4S)2 (Fc fusion)
chain 1: GPPCPPCPAPEFLGGPSVFLFPPKPKDTLMISRTPEVTCVVVDVSQEDPEVQFNWYVDGVEVHNAKTKPREEQFNSTYRVVSVLTVLHQDWLNGKEYKCKVSNKGLPSSIEKTISKAKGQPREPQVYTLPPCQEEMTKNQVSLWCLVKGFYPSDIAVEWESNGQPENNYKTTPPVLDSDGSFFLYSRLTVDKSRWQEGNVFSCSVMHEALHNHYTQKSLSLSLGKGGGGSGGGGSDVQLQESGGGLVQAGGSLKLSCAASGGSLSRYDMGWFRQAPGKEREFVARISWSGTTKYYADAVKGRFAISRDNAKNTVYLQMNSLKPEDTAVYYCAAAFYGNRGYYDVNAYTSSGQGTQVTVS
chain 2: GPPCPPCPAPEFLGGPSVFLFPPKPKDTLMISRTPEVTCVVVDVSQEDPEVQFNWYVDGVEVHNAKTKPREEQFNSTYRVVSVLTVLHQDWLNGKEYKCKVSNKGLPSSIEKTISKAKGQPREPQVCTLPPSQEEMTKNQVSLSCAVKGFYPSDIAVEWESNGQPENNYKTTPPVLDSDGSFFLVSRLTVDKSRWQEGNVFSCSVMHEALHNHYTQKSLSLSLGKGGGGSGGGGSEVQLLESGGGLVQPGGSLRLSCAASGFTFGNYDMAWVRQAPGKRPEWVSSIDTGGDITHYADSVKGRFTISRDNAKNTLYLQMNSLRPEDTAVYWCATDEEYALGPNEFDYYGQGTLVTVSS
B8: CIgG4F1A1(G4S)3 (Fc fusion)
chain 1: GPPCPPCPAPEFLGGPSVFLFPPKPKDTLMISRTPEVTCVVVDVSQEDPEVQFNWYVDGVEVHNAKTKPREEQFNSTYRVVSVLTVLHQDWLNGKEYKCKVSNKGLPSSIEKTISKAKGQPREPQVYTLPPCQEEMTKNQVSLWCLVKGFYPSDIAVEWESNGQPENNYKTTPPVLDSDGSFFLYSRLTVDKSRWQEGNVFSCSVMHEALHNHYTQKSLSLSLGKGGGGSGGGGSGGGGSDVQLQESGGGLVQAGGSLKLSCAASGGSLSRYDMGWFRQAPGKEREFVARISWSGTTKYYADAVKGRFAISRDNAKNTVYLQMNSLKPEDTAVYYCAAAFYGNRGYYDVNAYTSSGQGTQVTVS
chain 2: GPPCPPCPAPEFLGGPSVFLFPPKPKDTLMISRTPEVTCVVVDVSQEDPEVQFNWYVDGVEVHNAKTKPREEQFNSTYRVVSVLTVLHQDWLNGKEYKCKVSNKGLPSSIEKTISKAKGQPREPQVCTLPPSQEEMTKNQVSLSCAVKGFYPSDIAVEWESNGQPENNYKTTPPVLDSDGSFFLVSRLTVDKSRWQEGNVFSCSVMHEALHNHYTQKSLSLSLGKGGGGSGGGGSGGGGSEVQLLESGGGLVQPGGSLRLSCAASGFTFGNYDMAWVRQAPGKRPEWVSSIDTGGDITHYADSVKGRFTISRDNAKNTLYLQMNSLRPEDTAVYWCATDEEYALGPNEFDYYGQGTLVTVSS

Molecular target: mixture of three Der p 2 specific recombinant human IgE clones H10, H12, P4E (human) (UniProt P01854)
Sequence (P01854 other isoform, or with tags, fused parts or gaps): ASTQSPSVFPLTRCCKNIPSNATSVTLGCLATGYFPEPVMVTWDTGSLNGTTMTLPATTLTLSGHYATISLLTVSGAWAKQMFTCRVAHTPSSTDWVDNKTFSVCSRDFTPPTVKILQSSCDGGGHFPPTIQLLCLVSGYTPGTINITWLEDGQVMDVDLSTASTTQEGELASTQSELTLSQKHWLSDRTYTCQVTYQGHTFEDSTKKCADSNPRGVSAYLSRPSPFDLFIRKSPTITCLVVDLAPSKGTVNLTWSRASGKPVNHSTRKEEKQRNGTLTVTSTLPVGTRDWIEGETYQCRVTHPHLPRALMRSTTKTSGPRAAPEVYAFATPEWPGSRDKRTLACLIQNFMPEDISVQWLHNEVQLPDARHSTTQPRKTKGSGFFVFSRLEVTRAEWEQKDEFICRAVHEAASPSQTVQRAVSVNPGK
Assay: RBL-SX38 IgE displacement, FACS

| Max effect/effect 1 µM [%] | EC50 [nM] | Binder |
| --- | --- | --- |
| 8 |  | B1 |
| 95 | 2.1 | B2 |
| 0 |  | B3 |
| 92 | 2.6 | B4 |
| 88 | 3.5 | B5 |
| 92 | 35.5 | B6 |
| 18 |  | B7 |
| 0 |  | B8 |

Source: US20250171562A1
